From patent US20220162314A1 (ASHER BIOTHERAPEUTICS, published 2022) come the findings set out here.

The target in experiment [1] is T1, Recombinant human CD8ab protein (extracellular domains of CD8a and CD8b with leucine zippers and tags) (human, UniProt P01732 22-182; P10966 22-170).
T1 construct: extracellular domain; Secreted from HEK293 cells; also called recombinant CD8ab; soluble CD8ab antigen; not shown: acidic leucine zipper; 8x Histidine tag; basic leucine zipper; Strep-tag II
In words: ELISA: antigen coated on the plate, antibody titrated, anti-IgG (Fc)-HRP and TMB, A450. As to the method:
(§1) Binding specificity of the antibodies was determined by ELISA. […] of recombinant CD8ab, CD8a (Sino biological), CD8b (Sino biological) and ovalbumin (Sigma) or Erb2 (human epidermal growth factor receptor 2) (Sino biological) in PBS were coated onto the maxisorp plate overnight at 4° C. Ovalbumin or Erb2 was used as negative control. Plate was then blocked with casein blocking solution (Thermo Scientific) for 1 hr at room temperature. After blocking, plate was washed with wash buffer (PBS/0.05% Tween-20). Next, dilution of antibody from 30 nM to 0.0009 nM in PBS/0.5% BSA/0.05% Tween-20 was added onto the plate and incubated for 1-2 hr at room temperature. After incubation, plate was washed, and incubated with anti-human IgG (Fc specific)-HRP conjugate or anti-mouse IgG (Fc specific)-HRP conjugate (Jackson Immunoresearch) in PBS/0.5% BSA/0.05% Tween-20 for 1 hr. Binding was detected by adding TMB substrate (SeraCare) to the plate, followed by stopping solution of 0.1M HCl. Binding absorbance was read using GloMax® Discover Microplate Reader (Promega).
For orientation: An ELISA detects its analyte on a solid surface through an enzyme-linked reagent.

The target of experiment [2] is T2, Recombinant CD8a (Sino biological) (human, UniProt P01732 22-182).
T2 construct: also called CD8a alone
Described as above. Here is the method: as §1

Experiment [3] concerns the target T3, Recombinant CD8b (Sino biological) (human, UniProt P10966 22-170, limits assumed).
T3 construct: also called CD8b alone
Described as above. Here is the method: as §1

Experiment [4] concerns the target T4, CD8aa on human CD8+ NK cells (CD3-CD56+CD8a+ cells of hPBMCs) (human, UniProt P01732 22-235).
T4 construct: whole, on cells; also called CD8aa+ NK cells
In words: flow cytometry on human PBMCs, CD8+ NK cells (CD3-CD56+CD8a+), anti-human Fc MFI. Here is the method: (§2) Binding of CD8ab antibodies to T cells (FIG. 4) and NK cells (FIG. 5) in hPBMCs was detected by staining with anti-human Fc antibody conjugated to APC. Anti-hFc was used to measure the binding of CD8 antibodies containing hFc. Mean fluorescence intensity (MFI) of staining with anti-hFc is used to denote binding. Binding of anti-hFc was determined in CD3+CD8a+CD8b+ cells (CD8+ T cells) and CD3-CD56+CD8a+ cells (CD8+NK cells).
(§3) The binding of CD8ab antibodies on cells was determined by flow cytometry. Freshly isolated PBMCs were incubated with CD8ab antibodies for 2 hours at 4° C. Cells were then stained with antibodies against surface markers CD3 (UCHT1), CD4 (RPA-T4), CD8a (SK1), CD56 (HCD56), and anti-human Fc antibody (HP6017). Anti-human Fc antibody was used to measure the binding of CD8ab antibodies containing hFc. Stained cells were washed and analyzed by flow cytometry and mean fluorescence intensity (MFI) of staining with anti-hFc was used to denote binding.
Background: A flow cytometer gives signals particle by particle.

Experiment [5] addresses T1, Recombinant human CD8ab protein …. In words: SPR (Biacore T200, 37 C), antibody captured by anti-human IgG Fc, soluble CD8ab as analyte, 1:1 model. As to the method:
(§4) Recombinant human CD8ab protein was generated. […] Antibodies were first captured on an anti-hJgG-Fc CM5 or CM4 surface prepared using the Human Antibody Capture Kit (Cytiva). […] Dissociation was monitored for 5-10 minutes, and the anti-hJgG-Fc surface was regenerated with 3M MgCl2 before recapturing mAb in each subsequent cycle. Binding data were analyzed by Biacore T200 Evaluation Software version 3.2 using a 1:1 binding model.
A general note: In SPR one partner is held on a chip, and binding of the other changes the refractive index at the surface.

The target in experiment [6] is T5, CD8 on human CD8+ T cells (CD3+CD8a+CD8b+ cells of hPBMCs) (human, UniProt P01732 22-235; P10966 22-210).
T5 construct: whole, on cells; also called CD8ab+ T cells
In words: flow cytometry on human PBMCs, CD8+ T cells (CD3+CD8a+CD8b+), anti-human Fc MFI. As to the method:
as §2, §3

Experiment [7] deals with T1, Recombinant human CD8ab protein …. Kind of experiment: SPR as in Example 1 (antibody captured, soluble CD8ab as analyte), steady state fit. As to the method: as §4
Experiment [8] has as its target T5, CD8 on human CD8+ T cells …. In words: flow cytometry, CD8+ T cells, anti-human Fc MFI. As to the method: as §3

T2 sequence (P01732 22-182 limits assumed): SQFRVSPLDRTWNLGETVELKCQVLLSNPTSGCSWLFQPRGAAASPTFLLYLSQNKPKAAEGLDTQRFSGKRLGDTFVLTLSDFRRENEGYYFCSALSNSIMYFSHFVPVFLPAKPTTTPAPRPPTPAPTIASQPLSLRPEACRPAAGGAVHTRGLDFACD
T1 sequence (P01732 22-182, chain 1 of 2): as the sequence (P01732 22-182 limits assumed) above
T1 sequence (P10966 22-170, chain 2 of 2): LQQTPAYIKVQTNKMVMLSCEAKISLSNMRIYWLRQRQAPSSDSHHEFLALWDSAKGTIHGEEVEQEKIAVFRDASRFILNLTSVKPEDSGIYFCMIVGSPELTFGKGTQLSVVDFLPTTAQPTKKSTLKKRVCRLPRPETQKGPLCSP
T3 sequence (P10966 22-170 limits assumed): as the sequence (P10966 22-170, chain 2 of 2) above
T5 sequence (P01732 22-235, chain 1 of 2): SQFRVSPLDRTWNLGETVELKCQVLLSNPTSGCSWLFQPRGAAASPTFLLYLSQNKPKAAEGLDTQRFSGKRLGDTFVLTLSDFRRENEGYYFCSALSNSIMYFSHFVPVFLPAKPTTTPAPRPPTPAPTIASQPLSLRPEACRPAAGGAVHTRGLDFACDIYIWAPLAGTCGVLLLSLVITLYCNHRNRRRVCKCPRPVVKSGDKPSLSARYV
T5 sequence (P10966 22-210, chain 2 of 2): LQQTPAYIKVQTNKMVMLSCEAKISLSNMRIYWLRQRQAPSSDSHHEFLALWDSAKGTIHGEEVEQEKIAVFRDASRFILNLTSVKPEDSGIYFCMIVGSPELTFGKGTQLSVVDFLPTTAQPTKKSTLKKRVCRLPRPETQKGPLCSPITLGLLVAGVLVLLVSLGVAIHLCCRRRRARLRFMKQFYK
T4 sequence (P01732 22-235): as the sequence (P01732 22-235, chain 1 of 2) above

B1: xhCD8v6 (antibody, human IgG1, V domains shown)
VH: EVQLVESGGGAVRPGGSLRLSCAASGFTFDDYGMSWVRQAPGKGLEWVSDINWSGEITAYADSVKGRFTISRDNAKNSLYLQMNSLRAEDTAVYYCARSNSYRWDDALDIWGQGTMVTVSS
VL: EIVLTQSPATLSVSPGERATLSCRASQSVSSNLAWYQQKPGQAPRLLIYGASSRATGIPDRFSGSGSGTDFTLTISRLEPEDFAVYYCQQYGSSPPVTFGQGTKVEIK
notes: also called xCD8v6
B1: the “EC50 (read off the curve)” value in experiment [1] is ~0.07 nM; in experiment [6] it was ~0.3 nM. Besides, the binding result in experiment [2] is listed as “no binding (tested: 30 nM)”; in experiment [3] it was “no binding (tested: 30 nM)”; in experiment [4] it was “no binding (tested: 100 nM)”. For the same molecule, in experiment [5], the Kd stood at 0.35 nM. In addition, the dissociation rate constant (koff) in experiment [5] is 0.000571 s⁻¹. Besides, the kon in experiment [5] was found to be 1.62e+06 M⁻¹ s⁻¹.

B2: xhCD8v7 (antibody, human IgG1, V domains shown)
VH: EVQLVESGGGLVQPGRSLRLSCAASGFTFDDYAMHWVRQAPGKGLEWVAVISYDGSNKYYADSVKGRFTISRDNSKNTLYLQMNSLRAEDTAVYYCAKDRIGWYDYDAFDIWGQGTMVTVSS
VL: EIVLTQSPATLSVTPGEGATLSCRASHSVGSNLAWYQQKPGQAPRLLIYDASNRATGIPARFSGSGSGTDFTLTISSLEPEDLAVYYCQQRSNWPPTFGQGTRLEIK
Turning to B2, the “EC50 (read off the curve)” value in experiment [1] is ~0.09 nM; in experiment [6], ~0.05 nM. Further, the binding result in experiment [2] is reported as “no binding (tested: 30 nM)”; in experiment [3], “no binding (tested: 30 nM)”; in experiment [4], “no binding (tested: 100 nM)”. For the same molecule, the Kd in experiment [5] worked out at 1.08 nM. In addition, in experiment [5], the off-rate (koff) was 0.000922 s⁻¹. For the same molecule, the kon in experiment [5] is 855000 M⁻¹ s⁻¹.

B3: xhCD8v8 (antibody, human IgG1, V domains shown)
VH: QVQLQQSGAELVRPGSSVKISCKASGYAFSSYWMNWVKQRPGQGLEWIGQIYPGDGDTNYNGKFKGKATLTADKSSSTAYMQLSSLTSEDSAVYFCARSGAAFSSYYAMDYWGQGTSVTVSS
VL: DIQMTQSPASLSVSVGETVTITCRASENIYSNLAWYQQKQGKSPQLLVYAATNLADGVPSRFSGSGSGTQYSLKINSLQSEDFGSYYCQHFWGTPWTFGGGTKLEIK
notes: also called xCD8v8
For B3, the Kd in experiment [7] turned out to be 236 nM.

B4: xhCD8v1 (antibody, V domains shown)
VH: QVHLQQSGPELVKPGASVKMSCKTSGYTFTKYTMHWVKQGHEESLEWIGHFNPNNDETKYNQKFTGKATLTVDKSSTTAYMELRSLTSDDSALYYCARDGLGLRLFADWGQGTLITVSA
VL: DIQMTQSPASLSASVGETVTITCGASENIYGALNWYQRKQGKSPQLLIFGATNLADGVSSRFSGSGSDRQYSLKISSLHPDDVATYYCQNILDTPWTFGGGTKLEIK
notes: Mouse monoclonal antibody against CD8b; also called mouse monoclonal antibody xhCD8v1; xCD8v1
Consider B4, for which the “EC50 (read off the curve)” value in experiment [1] was ~0.05 nM; in experiment [3], ~0.09 nM; in experiment [8], ~0.3 nM; in experiment [6] it was ~0.3 nM. Moreover, the binding result in experiment [2] is recorded as “no binding (tested: 30 nM)”; in experiment [4], “no binding (tested: 100 nM)”. For the same molecule, the Kd in experiment [5] came to 19.8 nM. Also, the koff in experiment [5] came to 0.0183 s⁻¹. Moreover, in experiment [5], the kon worked out at 922000 M⁻¹ s⁻¹.

What is called EC50 (read off the curve) is the concentration giving half of the maximal effect. What is called Kd is the free concentration of one partner at which half of the binding sites on the other are occupied at equilibrium, for simple one-to-one binding. As a reminder, the koff is the first-order rate constant of dissociation. In general, kon refers to a measure of how fast the partners come together.
